Experimental data from article PMC6200739.

Key:
[1] = biological target: Flag-tagged LDHA containing a nuclear localization signal peptide; test: cross-linking
[2] = biological target: Flag-tagged LDHA containing a nuclear localization signal peptide; test: SEC

Question: Which results are given for “Flag-tagged LDHA containing a nuclear localization signal peptide (enzyme)”?
Answer: stoichiometry N [1]: 2; stoichiometry N [2]: 2
